From US20230002489A1 (SHANGHAI EPIMAB BIOTHERAPEUTICS, published 2023) come the findings set out here.

Test [1] has as its target T1, cynoCD3εγ/Fc fusion protein (cynomolgus monkey, UniProt Q95LI5 22-117; Q95LI7 23-113).
T1 construct: also called cynomolgus monkey CD3ε/γ heterodimer-Fc fusion protein; not shown: linker and Fc not described for the cynomolgus construct
T1 sequence (looked up) 1: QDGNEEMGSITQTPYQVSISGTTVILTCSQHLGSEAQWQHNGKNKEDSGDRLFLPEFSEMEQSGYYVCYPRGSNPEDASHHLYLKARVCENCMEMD
T1 sequence (looked up) 2: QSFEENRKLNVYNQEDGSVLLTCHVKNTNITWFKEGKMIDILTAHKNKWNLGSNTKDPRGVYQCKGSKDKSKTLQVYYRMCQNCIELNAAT
The test can be described thus: ELISA on plate-coated cyno CD3e/g heterodimer-Fc, OD450nm, unit taken from the concentration axis. As to the method:
(§1) The binding properties of the isolated murine anti-CD3 antibodies were measured with ELISA as follows: Heterodimeric CD3εγ/Fc fusion protein was coated at 1 μg/mL on 96-well plates at 4° C. overnight. Plates were washed once with washing buffer (PBS containing 0.05% Tween 20) and blocked with ELISA blocking buffer (1% BSA in PBS containing 0.05% Tween 20) at room temperature for 2 hours. Anti-CD3 antibodies were then added and incubated at 37° C. for 1 hour. Plates were washed three times with washing buffer. HRP labeled anti-mouse IgG secondary antibody (Sigma, Cat. #A0168) was added and the plates were incubated at 37° C. for 30 minutes then washed 5 times in washing buffer. 100 μl of tetramethylbenzidine (TMB) chromogenic solution was added to each well. Following color development, the reaction was stopped with 1 Normal HCl and absorbance at 450 nm was measured on a Varioskan™ LUX microplate reader (ThermoFisher Scientific). Binding signals were plotted against antibody concentration with GraphPad Prism 5.0 software and EC50s were calculated accordingly.

Test [2] concerns the target T2, recombinant huCD3εγ/Fc fusion protein (fusion protein heterodimer) (human).
T2 construct: also called huCD3/Fc dimer; heterodimeric CD3εγ/Fc fusion protein
The test is described as follows: ELISA on plate-coated human CD3e/g heterodimer-Fc, OD450nm, unit taken from the concentration axis. As to the method:
as §1
On the technique in general: ELISA stands for enzyme-linked immunosorbent assay.

For test [3], the target named is T3, human CD3 on the surface of Jurkat cells (human, UniProt P07766 23-207; P09693 23-182; P04234 22-171).
T3 construct: whole, on cells; Endogenous CD3 complex of the Jurkat T cell line; also called cell surface CD3 target on Jurkat cells; CD3-expressing Jurkat cells
T3 sequence (P07766 23-207, chain 1 of 3): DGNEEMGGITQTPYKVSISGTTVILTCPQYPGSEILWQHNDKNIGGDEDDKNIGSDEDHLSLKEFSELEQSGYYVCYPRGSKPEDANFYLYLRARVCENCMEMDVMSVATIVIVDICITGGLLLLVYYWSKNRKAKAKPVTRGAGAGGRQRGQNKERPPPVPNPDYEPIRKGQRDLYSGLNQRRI
T3 sequence (P09693 23-182, chain 2 of 3): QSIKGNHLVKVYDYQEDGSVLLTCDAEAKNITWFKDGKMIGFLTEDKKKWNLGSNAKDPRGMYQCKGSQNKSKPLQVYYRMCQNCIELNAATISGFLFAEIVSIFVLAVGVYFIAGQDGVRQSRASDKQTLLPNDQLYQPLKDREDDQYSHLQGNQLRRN
T3 sequence (P04234 22-171, chain 3 of 3): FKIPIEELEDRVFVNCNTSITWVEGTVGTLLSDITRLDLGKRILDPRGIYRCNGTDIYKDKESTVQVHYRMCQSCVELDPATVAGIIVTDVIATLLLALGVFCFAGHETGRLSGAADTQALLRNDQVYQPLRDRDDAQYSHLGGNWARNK
The test can be described thus: cell binding assay, Jurkat cells.

Test [4] concerns the target T3, human CD3 on the surface of Jurkat cells. The test is described as follows: flow cytometry on Jurkat cells, MFI against antibody conc. (nM). The procedure: Different humanized VH and VK combinations led to humanized anti-CD3 variants with different CD3 binding affinities. The binding activity of the humanized variants of mAbCD3-001 were tested via flow cytometry with the human CD3-expressing Jurkat T cell line. 5×10⁵ Jurkat cells in FACS buffer were seeded into each well of a 96-well plate. Cells were centrifuged at 400 g for 5 minutes and supernatants were discarded. For each well, 100 μl of serially diluted antibodies were then added and mixed with the cells. After 40 minutes incubation at 4° C., plates were washed several times to remove excess antibodies. […] After another round of centrifugation and a washing step, cells were resuspended in FACS buffer for reading on a CytoFLEX Flow Cytometer (Beckman Coulter). Median Fluorescence Intensity (MFI) readouts were plotted against antibody concentration and analyzed with GraphPad Prism 5.0 software.
Background: A flow cytometer gives signals particle by particle.

Test [5] has as its target T4, recombinant human BCMA extracellular domain/Fc dimer (human).
T4 construct: also called Human BCMA (ECD); human BCMA(ECD)/Fc
The test can be described thus: SPR, Biacore T200, 25 C; antibody captured on anti-mouse IgG Fc, BCMA(ECD)/Fc injected. The procedure:
(§2) Briefly, goat anti-mouse IgG Fc antibody was directly immobilized across a biosensor chip, and antibody samples were injected over reaction matrices at a flow rate of 5 μl/min. Mouse anti-BCMA IgG test antibody was injected over the immobilized surface and captured by the immobilized anti-Fc antibodies. Human and cynomolgus BCMA(ECD)/Fc target polypeptides were then injected over the captured mouse anti-BCMA IgG surface. The association and dissociation rate constants, kₒₙ (M⁻¹s⁻¹) and koff (s⁻¹), respectively, were determined with a continuous flow rate of 30 μl/min. Rate constants were derived by making kinetic binding measurements at five different concentrations of target BCMA(ECD) polypeptide. The equilibrium dissociation constant KD (M) of the reaction between antibodies and related target proteins was then calculated from the kinetic rate constants using the formula KD=koff/kₒₙ. Kinetic constants were determined by processing and fitting the data to a 1:1 binding model using Biacore analysis software.

In test [6] the target is T5, cynomolgus BCMA(ECD)/Fc target polypeptide (cynomolgus).
T5 construct: extracellular domain; also called Cyno BCMA (ECD); cynoBCMA/Fc
Described as above. As to the method:
as §2

The target of the next test is T6, BCMA on NCI-H929 cells (human, UniProt Q02223 1-184).
T6 sequence (looked up): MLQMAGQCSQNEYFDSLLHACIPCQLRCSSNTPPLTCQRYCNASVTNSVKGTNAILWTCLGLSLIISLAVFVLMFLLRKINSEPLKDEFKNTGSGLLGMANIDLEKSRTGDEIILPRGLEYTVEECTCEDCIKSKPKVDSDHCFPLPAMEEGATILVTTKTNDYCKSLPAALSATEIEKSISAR
The test is described as follows: cell-based or functional assay.

In test [7] the target is T7, BCMA on HEK293F-BCMA-NF-kB-luc cells (clone 1H2) (UniProt Q02223 1-184, limits assumed).
T7 sequence (looked up): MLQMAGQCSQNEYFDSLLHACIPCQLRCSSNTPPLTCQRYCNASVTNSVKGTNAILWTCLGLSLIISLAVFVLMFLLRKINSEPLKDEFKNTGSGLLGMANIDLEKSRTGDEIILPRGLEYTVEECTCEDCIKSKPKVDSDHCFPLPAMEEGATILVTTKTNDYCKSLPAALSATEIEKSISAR
The test can be described thus: cell-based or functional assay.

For test [8], the target named is T7, BCMA on HEK293F-BCMA-NF-kB-luc cells …. The test can be described thus: cell-based or functional assay. This is another data set of the same source.

T2 sequence (chain, as listed by the source limits assumed, chain 1 of 2): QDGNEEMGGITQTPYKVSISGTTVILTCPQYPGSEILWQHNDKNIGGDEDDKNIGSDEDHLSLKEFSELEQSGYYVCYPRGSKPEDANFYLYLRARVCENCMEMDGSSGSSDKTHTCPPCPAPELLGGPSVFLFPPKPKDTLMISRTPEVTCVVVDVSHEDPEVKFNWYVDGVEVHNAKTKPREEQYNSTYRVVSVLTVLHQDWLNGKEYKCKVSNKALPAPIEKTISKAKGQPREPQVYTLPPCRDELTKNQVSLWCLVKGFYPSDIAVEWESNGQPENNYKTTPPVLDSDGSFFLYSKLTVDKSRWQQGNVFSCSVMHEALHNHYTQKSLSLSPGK
T2 sequence (chain, as listed by the source limits assumed, chain 2 of 2): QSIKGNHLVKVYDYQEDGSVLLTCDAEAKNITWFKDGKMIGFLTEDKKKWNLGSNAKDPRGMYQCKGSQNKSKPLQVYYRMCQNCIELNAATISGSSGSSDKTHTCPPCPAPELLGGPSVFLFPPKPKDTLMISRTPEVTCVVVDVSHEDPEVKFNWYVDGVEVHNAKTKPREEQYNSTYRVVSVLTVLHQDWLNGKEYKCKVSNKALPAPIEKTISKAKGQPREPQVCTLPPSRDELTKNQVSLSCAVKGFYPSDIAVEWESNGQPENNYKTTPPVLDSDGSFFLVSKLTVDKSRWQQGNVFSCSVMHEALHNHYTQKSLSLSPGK

B1: mAbCD3-001 (antibody, V domains shown)
VH: QVQLQQSGPDLVKPGASVKISCKASGFSFTNYYVHWMKQRPGQGLEWIGWISPGSDNTKYNEKFKGKATLTADTSSTTAYMQLSSLTSEDSAVYYCARDDYGNYYFDYWGRGSTLTVSS
VL: DIVMSQSPSSLAVSAGEKVTMTCKSSQSLLNSRTRKNYLAWYQQKPGQSPKLLIYWASTRESGVPDRFTGSGSGTDFTLTISSVQAEDLAVYYCKQSYILRTFGGGTKLEIK
notes: Murine hybridoma monoclonal antibody
What is called EC50 is the concentration that produces a half-maximal response. Consider B1, for which the results for the EC50 in test [1] and in test [2] were 0.0235 µg/mL and 0.028 µg/mL, respectively. Also, the binding result in [3] is given as “binds”.

B2: mAbCD3-002 (antibody, V domains shown)
VH: QVQLQQSGPELVKPGASVRISCKASGYTFTNYYIHWVKQRPGQGLEWIGWINLGDVNTKFNEKFKDKATLTADKSSTTAYMQLSSLTSEDSAVYFCARDGYSFYYFDFWGQGTTLTVSS
VL: DIVMSQSPSSLAVSVGEKVTMSCKASQSLFNSRTRKNYLAWYQQKPGQSPKLLIYWASTRESGVPDRFTGSGSGTDFIFTISSVQAEDLAIYYCIQSHTLRTFGGGTKLEIK
notes: as for B1
In the case of B2, the values for the concentration for a half-maximal effect (EC50) in test [1] and in test [2] were 0.0109 µg/mL and 0.01 µg/mL, respectively. Also, in test [3], the binding result is on record as “binds”.

B3: HuEM0006-01c (antibody, human IgG1, kappa, L234A L235A, V domains shown)
VH: QVQLQQSGPDLVKPGASVKISCKASGFSFTNYYVHWMKQRPGQGLEWIGWISPGSDNTKYNEKFKGKATLTADTSSTTAYMQLSSLTSEDSAVYYCARDDYGNYYFDYWGRGSTLTVSS
VL: DIVMSQSPSSLAVSAGEKVTMTCKSSQSLLNSRTRKNYLAWYQQKPGQSPKLLIYWASTRESGVPDRFTGSGSGTDFTLTISSVQAEDLAVYYCKQSYILRTFGGGTKLEIKR
notes: also called chimeric control antibody
As for B3, the binding result in test [4] is listed as “binds”.

B4: mAbBCMA-003 (antibody, V domains shown)
VH: EVQLQQSGTVLARPGASVRMSCKASGYIFPNFWMHWVKQRPGQGLDWIGAFYPGNDDTYYNQKFKGKAKLTAVTSASTAYMELSSLTSEDSAVYYCARSGYYGSSDAMDYWGQGTSVTVSS
VL: DIQMTQSPASLSASVGETVTVTCGASENIYGALNWYQRKQGKSPQLLIYGATNLADGISSRFSGSGSGRQFSLKISSLLPDDVATYFCQSVLTTPWTFGGGTKLEIK
notes: Mouse anti-BCMA IgG from hybridoma
A word on the Kd: it is the concentration at which binding is half-saturated. As a reminder, the koff is the rate constant with which the complex falls apart. One may read the kon as the rate constant with which the complex forms. Consider B4, for which, in test [5], the Kd worked out at 0.408 nM, the dissociation rate constant (koff) is 1.85e-05 s⁻¹ and the kon is 45400 M⁻¹ s⁻¹. In addition, in test [6], the Kd was 3.9 nM, the koff was 0.000236 s⁻¹ and the kon came out at 60600 M⁻¹ s⁻¹. Moreover, in the test with BCMA on NCI-H929 cells, the “EC50 of inhibition of BAFF-induced NF-kB phosphorylation in NCI-H929 cells (inhibition %), unit from the axis” value was determined as 16.7 nM. Also, in test [7], the “EC50 of inhibition of the APRIL-induced NF-kB luciferase signal in HEK293F-BCMA-NF-kB-luc cells (inhibition %), unit from the axis” value came to 6.18 nM. In addition, the “EC50 of inhibition of the BAFF-induced NF-kB luciferase signal in HEK293F-BCMA-NF-kB-luc cells (inhibition %), unit from the axis” value in test [8] amounted to 3.87 nM.
